Biological target: sap18_drome Bin1 (UniProt Q9VEX9)
Sequence (Q9VEX9 whole entry): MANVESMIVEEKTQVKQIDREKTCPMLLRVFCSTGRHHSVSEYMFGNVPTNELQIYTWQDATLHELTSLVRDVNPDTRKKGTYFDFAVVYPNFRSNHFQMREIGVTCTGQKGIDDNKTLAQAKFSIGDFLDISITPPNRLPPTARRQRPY

Chain of Cell division control protein 42 homolog (Homo sapiens), P60953 G12V (P60953 whole entry G12V): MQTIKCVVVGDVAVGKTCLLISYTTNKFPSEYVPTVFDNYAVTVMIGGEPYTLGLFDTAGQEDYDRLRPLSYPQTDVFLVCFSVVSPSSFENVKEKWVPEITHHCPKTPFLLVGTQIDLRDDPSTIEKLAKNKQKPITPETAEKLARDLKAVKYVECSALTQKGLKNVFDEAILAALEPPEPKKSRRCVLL
Chain of Cell division control protein 42 homolog (Homo sapiens), P60953 D118A (P60953 whole entry D118A): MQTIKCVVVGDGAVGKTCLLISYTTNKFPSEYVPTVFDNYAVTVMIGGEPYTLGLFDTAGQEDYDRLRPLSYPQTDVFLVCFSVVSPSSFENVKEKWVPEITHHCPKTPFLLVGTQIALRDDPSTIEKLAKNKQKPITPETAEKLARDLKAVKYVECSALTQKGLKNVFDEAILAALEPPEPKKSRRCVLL

## Cell division control protein 42 homolog (Homo sapiens), P60953 D118A
  effect of a mutation on the interaction: disrupting interaction

## Cell division control protein 42 homolog (Homo sapiens), P60953 G12V
  effect of a mutation on the interaction: increasing interaction
